The chains are these.
B1: Ac-Asp-Trp-5Clw-Hyp-Har-leu-[Cys(2Lut)-Thp-Leu-Ile-Cys]-NH2 (peptide)
peptide: Ac-DW[Trp(5-Cl)][Hyp][hArg][dL]C[Thp]LIC-NH2
modifications: linker 7-11 via Pyridine(2,6-diCH2)
SMILES: CC[C@H](C)[C@@H]1NC(=O)[C@H](CC(C)C)NC(=O)C2(CCOCC2)NC(=O)[C@@H](NC(=O)[C@@H](CC(C)C)NC(=O)[C@H](CCCCNC(=N)N)NC(=O)[C@@H]2C[C@@H](O)CN2C(=O)[C@H](Cc2c[nH]c3ccc(Cl)cc23)NC(=O)[C@H](Cc2c[nH]c3ccccc23)NC(=O)[C@H](CC(=O)O)NC(C)=O)CSCc2cccc(n2)CSC[C@@H](C(N)=O)NC1=O
B2: Ac-Asp-Trp-5Clw-Hyp-Hly-leu-[Cys(2Lut)-Thp-Leu-Ile-Cys]-NH2 (peptide)
peptide: Ac-DW[Trp(5-Cl)][Hyp][hLys][dL]C[Thp]LIC-NH2
modifications: linker 7-11 via Pyridine(2,6-diCH2)
SMILES: CC[C@H](C)[C@@H]1NC(=O)[C@H](CC(C)C)NC(=O)C2(CCOCC2)NC(=O)[C@@H](NC(=O)[C@@H](CC(C)C)NC(=O)[C@H](CCCCCN)NC(=O)[C@@H]2C[C@@H](O)CN2C(=O)[C@H](Cc2c[nH]c3ccc(Cl)cc23)NC(=O)[C@H](Cc2c[nH]c3ccccc23)NC(=O)[C@H](CC(=O)O)NC(C)=O)CSCc2cccc(n2)CSC[C@@H](C(N)=O)NC1=O
B3: Ac-Asp-Trp-5Clw-Hyp-Lys-leu-[Cys(2Lut)-Thp-Leu-Ile-Cys]-NH2 (peptide)
peptide: Ac-DW[Trp(5-Cl)][Hyp]K[dL]C[Thp]LIC-NH2
modifications: linker 7-11 via Pyridine(2,6-diCH2)
SMILES: CC[C@H](C)[C@@H]1NC(=O)[C@H](CC(C)C)NC(=O)C2(CCOCC2)NC(=O)[C@@H](NC(=O)[C@@H](CC(C)C)NC(=O)[C@H](CCCCN)NC(=O)[C@@H]2C[C@@H](O)CN2C(=O)[C@H](Cc2c[nH]c3ccc(Cl)cc23)NC(=O)[C@H](Cc2c[nH]c3ccccc23)NC(=O)[C@H](CC(=O)O)NC(C)=O)CSCc2cccc(n2)CSC[C@@H](C(N)=O)NC1=O
B4: Ac-Asp-Trp-5Clw-Hyp-His-leu-[Cys(2Lut)-Thp-Leu-Ile-Cys]-NH2 (peptide)
peptide: Ac-DW[Trp(5-Cl)][Hyp]H[dL]C[Thp]LIC-NH2
modifications: linker 7-11 via Pyridine(2,6-diCH2)
SMILES: CC[C@H](C)[C@@H]1NC(=O)[C@H](CC(C)C)NC(=O)C2(CCOCC2)NC(=O)[C@@H](NC(=O)[C@@H](CC(C)C)NC(=O)[C@H](Cc2c[nH]cn2)NC(=O)[C@@H]2C[C@@H](O)CN2C(=O)[C@H](Cc2c[nH]c3ccc(Cl)cc23)NC(=O)[C@H](Cc2c[nH]c3ccccc23)NC(=O)[C@H](CC(=O)O)NC(C)=O)CSCc2cccc(n2)CSC[C@@H](C(N)=O)NC1=O
B5: Ac-Asp-Trp-5Clw-Hyp-Glu-leu-[Cys(2Lut)-Thp-Leu-Ser-Cys]-NH2 (peptide)
peptide: Ac-DW[Trp(5-Cl)][Hyp]E[dL]C[Thp]LSC-NH2
modifications: linker 7-11 via Pyridine(2,6-diCH2)
SMILES: CC(=O)N[C@@H](CC(=O)O)C(=O)N[C@@H](Cc1c[nH]c2ccccc12)C(=O)N[C@@H](Cc1c[nH]c2ccc(Cl)cc12)C(=O)N1C[C@H](O)C[C@H]1C(=O)N[C@@H](CCC(=O)O)C(=O)N[C@H](CC(C)C)C(=O)N[C@H]1CSCc2cccc(n2)CSC[C@@H](C(N)=O)NC(=O)[C@H](CO)NC(=O)[C@H](CC(C)C)NC(=O)C2(CCOCC2)NC1=O
B6: Ac-Asp-Eaa-Eaa-Hyp-Glu-leu-[Cys(2Lut)-Thp-Leu-Ile-Cys]-NH2 (peptide)
peptide: Ac-D[Phe(3,4-Cl2)][Phe(3,4-Cl2)][Hyp]E[dL]C[Thp]LIC-NH2
modifications: linker 7-11 via Pyridine(2,6-diCH2)
SMILES: CC[C@H](C)[C@@H]1NC(=O)[C@H](CC(C)C)NC(=O)C2(CCOCC2)NC(=O)[C@@H](NC(=O)[C@@H](CC(C)C)NC(=O)[C@H](CCC(=O)O)NC(=O)[C@@H]2C[C@@H](O)CN2C(=O)[C@H](Cc2ccc(Cl)c(Cl)c2)NC(=O)[C@H](Cc2ccc(Cl)c(Cl)c2)NC(=O)[C@H](CC(=O)O)NC(C)=O)CSCc2cccc(n2)CSC[C@@H](C(N)=O)NC1=O
B7: DOTA-APAc-Asp-Gly-5Clw-Hyp-Glu-leu-[Cys(2Lut)-Thp-Leu-Ile-AET] (peptide)
peptide: {DOTA-APAc″}-DG[Trp(5-Cl)][Hyp]E[dL]C[Thp]LI[Cysteamide]
modifications: linker (positions not given here) via Pyridine(2,6-diCH2); not fully specified (bridges); printed as DOTA-APAc-Asp-Gly-5Clw-Hyp-Glu-leu-[Cys(2Lut)-Thp-Leu-Ile-AET]

*1 amine or outer side, *2 acyl side, *3 side chain or, on linkers, in order; H or OH if unused. Bridges are numbered along the chain shown (N, C = ends). Primed or numbered codes have the meaning given here. Where no end group is shown, it is not given here. [ ]: non-standard residue; d: D form. The star is where a group is joined. Ttds = 1,13-diamino-4,7,10-trioxatridecan-succinamic acid, NCCCOCCOCCOCCCNC(=O)CCC(=O)*; APAc″ = 4-amino-1-carboxymethylpiperidine, NC1CCN(CC(=O)*)CC1; DOTA = O=C(O)CN1CCN(CC(=O)O)CCN(CC(=O)*)CCN(CC(=O)O)CC1; 2Lut = 2,6-lutidylidene bridge between two thiols; Trp(5-Cl) = N[C@@H](Cc1c[nH]c2ccc(Cl)cc12)C(=O)O; Phe(3,4-Cl2) = N[C@@H](Cc1ccc(Cl)c(Cl)c1)C(=O)O; Pyridine(2,6-diCH2) = c1cc(C[*:1])nc(C[*:2])c1; Trp(6-F) = N[C@@H](Cc1c[nH]c2cc(F)ccc12)C(=O)O; 2Lut″ = 2,6-lutidylidene linking two thiols; APAc = 4-amino-1-carboxymethylpiperidine; Phe(3-Cl) = N[C@@H](Cc1cccc(Cl)c1)C(=O)O; MeO10kDaPEGAc = polydisperse 10 kDa PEG; Pro(4S-NH2) = N[C@@H]1CN[C@H](C(=O)O)C1; Phe(2-Cl) = N[C@@H](Cc1ccccc1Cl)C(=O)O; mXylylene = c1cc(C[*:1])cc(C[*:2])c1; Cya = N[C@@H](CS(=O)(=O)O)C(=O)O; Hyp = O=C(O)[C@@H]1C[C@@H](O)CN1; hArg = N=C(N)NCCCC[C@H](N)C(=O)O; Cysteamide = C(CS[*:3])N[*:1]; Suc = O=C(CCC(=O)[*:2])[*:1]; hLys = NCCCCC[C@H](N)C(=O)O; Api = NC1(C(=O)O)CCNCC1; Thp = NC1(C(=O)O)CCOCC1; Aib = CC(C)(N)C(=O)O

The first test has as its target human Gastric Inhibitory Peptide Receptor (GIPR) (human) (UniProt P48546). The test is described as follows: FACS competition vs biotinylated GIP-057 on CHO-K1-hGIPR cells; category B: pIC50 7.1-8.0.
Consider B1, for which the pIC50 fell in the range of 7.1 to 8 pic50.

A further test has as its target human Gastric Inhibitory Peptide Receptor (human) (UniProt P48546). As to the kind of experiment: FACS competition with GIP-057 on CHO-K1-hGIPR cells; pIC50 category A: >8.0.
As for {DOTA-Ttds}-DW[Trp(5-Cl)][Pro(4S-NH2)](Ac)E[dL]C[Aib]LI[Cysteamide] (linker 7-11 via mXylylene) [DOTA-Ttds-Asp-Trp-5Clw-4Ap(Ac)-Glu-leu-[Cys(3MeBn)-Aib-Leu-Ile-AET]], the pIC50 is > 8 pic50.

The next test deals with biotinylated extracellular domain of the human GIP receptor (bioGIPR) (human) (UniProt P48546). The test is described as follows: SPR single cycle kinetics, bioGIPR captured on chip; category A: t1/2 >15 min.
Chain of biotinylated extracellular domain of the human GIP receptor (bioGIPR) (human) (P48546 24-138 limits assumed): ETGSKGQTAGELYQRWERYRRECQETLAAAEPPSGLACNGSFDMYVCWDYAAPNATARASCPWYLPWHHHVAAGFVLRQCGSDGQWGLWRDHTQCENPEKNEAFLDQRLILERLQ
For the molecule B2, the t1/2 is > 15 min.

Regarding Ac-DW[Trp(5-Cl)][Hyp]R[dL]C[Thp]LIC-NH2 (linker 7-11 via Pyridine(2,6-diCH2)) [Ac-Asp-Trp-5Clw-Hyp-Arg-leu-[Cys(2Lut)-Thp-Leu-Ile-Cys]-NH2], the t1/2 was > 15 min.

On to B3, for which the t1/2 was > 15 min.

Turning to B1, the t1/2 is > 15 min.

As for B4, the t1/2 is > 15 min.

Consider Suc-W[Trp(5-Cl)][Hyp]E[dL]C[Api](MeO10kDaPEGAc)LIC-{APAc-Lys(DOTA)-NH2} (linker 6-10 via 2Lut) [HO-Succinyl-Trp-5Clw-Hyp-Glu-leu-[Cys(2Lut)-Apc(MeO10kDaPEGAc)-Leu-Ile-Cys]-APAc-Lys(DOTA)-NH2], for which the t1/2 is > 15 min.

For {DOTA-Ttds}-DW[Trp(5-Cl)][Pro(4S-NH2)](Ac)E[dL]C[Aib]LI[Cysteamide] (linker 7-11 via mXylylene) [DOTA-Ttds-Asp-Trp-5Clw-4Ap(Ac)-Glu-leu-[Cys(3MeBn)-Aib-Leu-Ile-AET]], the t1/2 is > 15 min.

The target in a further test is human Gastric Inhibitory Peptide Receptor (GIPR) (human) (UniProt P48546). As to the kind of experiment: FACS competition vs biotinylated GIP-057 on CHO-K1-hGIPR cells; category C: pIC50 6.1-7.0.
Chain of human Gastric Inhibitory Peptide Receptor (GIPR) (human) (P48546 22-466 limits assumed): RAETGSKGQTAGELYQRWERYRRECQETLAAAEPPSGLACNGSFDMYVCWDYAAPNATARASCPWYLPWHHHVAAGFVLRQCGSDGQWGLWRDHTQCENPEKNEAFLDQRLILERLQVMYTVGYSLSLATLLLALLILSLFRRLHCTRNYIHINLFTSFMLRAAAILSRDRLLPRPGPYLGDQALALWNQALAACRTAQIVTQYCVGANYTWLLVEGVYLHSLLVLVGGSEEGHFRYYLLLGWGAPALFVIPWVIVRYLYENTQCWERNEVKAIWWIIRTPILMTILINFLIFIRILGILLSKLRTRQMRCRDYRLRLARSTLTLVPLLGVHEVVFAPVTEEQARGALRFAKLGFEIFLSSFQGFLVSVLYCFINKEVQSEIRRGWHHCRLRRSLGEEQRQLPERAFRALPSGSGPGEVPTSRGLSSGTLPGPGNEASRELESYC
“H-Met-Tyr-Asp-Trp-Trp-Pro-Glu-Leu-[Cys(2MeBn)-Ala-Leu-Ile-Cys]-NH2 (peptide)” returned a pIC50 of 6.1 to 7 pic50.

Molecule Ac-DW[Phe(3-Cl)][Hyp]E[dL]C[Thp]LIC-NH2 (linker 7-11 via 2Lut″) [Ac-Asp-Trp-Mcf-Hyp-Glu-leu-[Cys(2Lut)-Thp-Leu-Ile-Cys]-NH2] registered a pIC50 of 6.1 to 7 pic50.

{DOTA-Ttds}-D[Trp(6-F)]WPE[dL]C[Aib]LI[Cysteamide] (linker 7-11 via mXylylene) [DOTA-Ttds-Asp-6Fw-Trp-Pro-Glu-leu-[Cys(3MeBn)-Aib-Leu-Ile-AET]] displayed a pIC50 of 6.1 to 7 pic50.

Turning to Ac-[Cya]G[Trp(5-Cl)][Hyp]E[dL]C[Aib]LI[Cysteamide] (linker 7-11 via 2Lut″) [Ac-Cya-Gly-5Clw-Hyp-Glu-leu-[Cys(2Lut)-Aib-Leu-Ile-AET]], the pIC50 fell in the range of 6.1 to 7 pic50.

Turning to B5, the pIC50 lay in the range of 6.1 to 7 pic50.

As to Ac-DW[Trp(5-Cl)][Hyp]E[dL]C[Thp]LIC-NH2 (disulfide 7-11) [Ac-Asp-Trp-5Clw-Hyp-Glu-leu-[Cys-Thp-Leu-Ile-Cys]-NH2], the pIC50 is 6.1 to 7 pic50.

The molecule B6 registered a pIC50 of 6.1 to 7 pic50.

In the case of Ac-D[Phe(2-Cl)][Trp(5-Cl)][Hyp]E[dL]C[Thp]LIC (linker 7-11 via Pyridine(2,6-diCH2); not fully specified (C-terminus)) [Ac-Asp-Ocf-5Clw-Hyp-Glu-leu-[Cys(2Lut)-Thp-Leu-Ile-Cys]-lys(DOTA)-NH2], the pIC50 is 6.1 to 7 pic50.

Consider B7, for which the pIC50 was in the range of 6.1 to 7 pic50.

In another test the target is human Gastric Inhibitory Peptide Receptor (human) (UniProt P48546). As to the kind of experiment: FACS competition with GIP-057 on CHO-K1-hGIPR cells; pIC50 category B: 7.1-8.0.
Chain of human Gastric Inhibitory Peptide Receptor (human) (P48546 22-466 limits assumed): as above
In turn, Suc-W[Trp(5-Cl)][Hyp]E[dL]C[Api](MeO10kDaPEGAc)LIC-{APAc-Lys(DOTA)-NH2} (linker 6-10 via 2Lut) [HO-Succinyl-Trp-5Clw-Hyp-Glu-leu-[Cys(2Lut)-Apc(MeO10kDaPEGAc)-Leu-Ile-Cys]-APAc-Lys(DOTA)-NH2] came in with a pIC50 of 7.1 to 8 pic50.

A further test concerns the target biotinylated extracellular domain of the human GIP receptor (bioGIPR) (human) (UniProt P48546). The test is described as follows: SPR single cycle kinetics, bioGIPR captured on chip; category B: pKD 8.1-9.0.
B2 showed a pKD of 8.1 to 9 pkd.

Consider Ac-DW[Trp(5-Cl)][Hyp]R[dL]C[Thp]LIC-NH2 (linker 7-11 via Pyridine(2,6-diCH2)) [Ac-Asp-Trp-5Clw-Hyp-Arg-leu-[Cys(2Lut)-Thp-Leu-Ile-Cys]-NH2], for which the pKD was 8.1 to 9 pkd.

For the molecule B3, the pKD lay within 8.1 to 9 pkd.

As to B1, the pKD is 8.1 to 9 pkd.

In turn, B4 came in with a pKD of 8.1 to 9 pkd.

Suc-W[Trp(5-Cl)][Hyp]E[dL]C[Api](MeO10kDaPEGAc)LIC-{APAc-Lys(DOTA)-NH2} (linker 6-10 via 2Lut) [HO-Succinyl-Trp-5Clw-Hyp-Glu-leu-[Cys(2Lut)-Apc(MeO10kDaPEGAc)-Leu-Ile-Cys]-APAc-Lys(DOTA)-NH2]: the pKD lay within 8.1 to 9 pkd.

{DOTA-Ttds}-DW[Trp(5-Cl)][Pro(4S-NH2)](Ac)E[dL]C[Aib]LI[Cysteamide] (linker 7-11 via mXylylene) [DOTA-Ttds-Asp-Trp-5Clw-4Ap(Ac)-Glu-leu-[Cys(3MeBn)-Aib-Leu-Ile-AET]] showed a pKD of 8.1 to 9 pkd.

A further test has as its target human Gastric Inhibitory Peptide Receptor (GIPR) (human) (UniProt P48546). As to the kind of experiment: FACS competition vs biotinylated GIP-057 on CHO-K1-hGIPR cells; category A: pIC50 >8.0.
Regarding B2, the pIC50 is > 8 pic50.

For Ac-DW[Trp(5-Cl)][Hyp]R[dL]C[Thp]LIC-NH2 (linker 7-11 via Pyridine(2,6-diCH2)) [Ac-Asp-Trp-5Clw-Hyp-Arg-leu-[Cys(2Lut)-Thp-Leu-Ile-Cys]-NH2], the pIC50 is > 8 pic50.

For the molecule B3, the pIC50 is > 8 pic50.

As to B4, the pIC50 is > 8 pic50.
